target: canine FcRn complex (FcRn-alpha subunit and beta-microglobulin), His-tagged, biotin labeled (canine); assay: SPR (Biacore), biotin-FcRn captured on SA surface, IgG flowed over, pH 6, 15 C

Binder | Kd [nM]
canine IgGB (65) mAb with mutation T286I (antibody, part only; not given: Variable domains, not shown: another chain or arm of the molecule) constant: ASTTAPSVFPLAPSCGSTSGSTVALACLVSGYFPEPVTVSWNSGSLTSGVHTFPSVLQSSGLYSLSSMVTVPSSRWPSETFTCNVAHPASKTKVDKPVPKRENGRVPRPPDCPKCPAPEMLGGPSVFIFPPKPKDTLLIARTPEVTCVVVDLDPEDPEVQISWFVDGKQMQIAKTQPREEQFNGTYRVVSVLPIGHQDWLKGKQFTCKVNNKALPSPIERTISKARGQAHQPSVYVLPPSREELSKNTVSLTCLIKDFFPPDIDVEWQSNGQQEPESKYRTTPPQLDEDGSYFLYSKLSVDKSRWQRGDTFICAVMHEALHNHYTQESLSHSPGK | 6.38
canine IgGB (65) mAb with mutation A426R (antibody, part only; not given: variable domains of unnamed mAb, not shown: another chain or arm of the molecule) constant: ASTTAPSVFPLAPSCGSTSGSTVALACLVSGYFPEPVTVSWNSGSLTSGVHTFPSVLQSSGLYSLSSMVTVPSSRWPSETFTCNVAHPASKTKVDKPVPKRENGRVPRPPDCPKCPAPEMLGGPSVFIFPPKPKDTLLIARTPEVTCVVVDLDPEDPEVQISWFVDGKQMQTAKTQPREEQFNGTYRVVSVLPIGHQDWLKGKQFTCKVNNKALPSPIERTISKARGQAHQPSVYVLPPSREELSKNTVSLTCLIKDFFPPDIDVEWQSNGQQEPESKYRTTPPQLDEDGSYFLYSKLSVDKSRWQRGDTFICRVMHEALHNHYTQESLSHSPGK | 4.23
canine IgGB (65) mAb with mutation A426S (antibody, part only; not given: Variable domains, not shown: another chain or arm of the molecule) constant: ASTTAPSVFPLAPSCGSTSGSTVALACLVSGYFPEPVTVSWNSGSLTSGVHTFPSVLQSSGLYSLSSMVTVPSSRWPSETFTCNVAHPASKTKVDKPVPKRENGRVPRPPDCPKCPAPEMLGGPSVFIFPPKPKDTLLIARTPEVTCVVVDLDPEDPEVQISWFVDGKQMQTAKTQPREEQFNGTYRVVSVLPIGHQDWLKGKQFTCKVNNKALPSPIERTISKARGQAHQPSVYVLPPSREELSKNTVSLTCLIKDFFPPDIDVEWQSNGQQEPESKYRTTPPQLDEDGSYFLYSKLSVDKSRWQRGDTFICSVMHEALHNHYTQESLSHSPGK | 11.9
canine IgGB (65) mAb with mutation Y436D (antibody, part only; not given: Variable domains, not shown: another chain or arm of the molecule) constant: ASTTAPSVFPLAPSCGSTSGSTVALACLVSGYFPEPVTVSWNSGSLTSGVHTFPSVLQSSGLYSLSSMVTVPSSRWPSETFTCNVAHPASKTKVDKPVPKRENGRVPRPPDCPKCPAPEMLGGPSVFIFPPKPKDTLLIARTPEVTCVVVDLDPEDPEVQISWFVDGKQMQTAKTQPREEQFNGTYRVVSVLPIGHQDWLKGKQFTCKVNNKALPSPIERTISKARGQAHQPSVYVLPPSREELSKNTVSLTCLIKDFFPPDIDVEWQSNGQQEPESKYRTTPPQLDEDGSYFLYSKLSVDKSRWQRGDTFICAVMHEALHNHDTQESLSHSPGK | 12.9
canine IgGB (65) mAb with mutation Y436K (antibody, part only; not given: variable domains of unnamed mAb, not shown: another chain or arm of the molecule) constant: ASTTAPSVFPLAPSCGSTSGSTVALACLVSGYFPEPVTVSWNSGSLTSGVHTFPSVLQSSGLYSLSSMVTVPSSRWPSETFTCNVAHPASKTKVDKPVPKRENGRVPRPPDCPKCPAPEMLGGPSVFIFPPKPKDTLLIARTPEVTCVVVDLDPEDPEVQISWFVDGKQMQTAKTQPREEQFNGTYRVVSVLPIGHQDWLKGKQFTCKVNNKALPSPIERTISKARGQAHQPSVYVLPPSREELSKNTVSLTCLIKDFFPPDIDVEWQSNGQQEPESKYRTTPPQLDEDGSYFLYSKLSVDKSRWQRGDTFICAVMHEALHNHKTQESLSHSPGK | 6.88
canine IgGB (65) mAb with mutation Y436G (antibody, part only; not given: Variable domains, not shown: another chain or arm of the molecule) constant: ASTTAPSVFPLAPSCGSTSGSTVALACLVSGYFPEPVTVSWNSGSLTSGVHTFPSVLQSSGLYSLSSMVTVPSSRWPSETFTCNVAHPASKTKVDKPVPKRENGRVPRPPDCPKCPAPEMLGGPSVFIFPPKPKDTLLIARTPEVTCVVVDLDPEDPEVQISWFVDGKQMQTAKTQPREEQFNGTYRVVSVLPIGHQDWLKGKQFTCKVNNKALPSPIERTISKARGQAHQPSVYVLPPSREELSKNTVSLTCLIKDFFPPDIDVEWQSNGQQEPESKYRTTPPQLDEDGSYFLYSKLSVDKSRWQRGDTFICAVMHEALHNHGTQESLSHSPGK | 9.67
canine IgGB (65) mAb with mutation Y436C (antibody, part only; not given: Variable domains, not shown: another chain or arm of the molecule) constant: ASTTAPSVFPLAPSCGSTSGSTVALACLVSGYFPEPVTVSWNSGSLTSGVHTFPSVLQSSGLYSLSSMVTVPSSRWPSETFTCNVAHPASKTKVDKPVPKRENGRVPRPPDCPKCPAPEMLGGPSVFIFPPKPKDTLLIARTPEVTCVVVDLDPEDPEVQISWFVDGKQMQTAKTQPREEQFNGTYRVVSVLPIGHQDWLKGKQFTCKVNNKALPSPIERTISKARGQAHQPSVYVLPPSREELSKNTVSLTCLIKDFFPPDIDVEWQSNGQQEPESKYRTTPPQLDEDGSYFLYSKLSVDKSRWQRGDTFICAVMHEALHNHCTQESLSHSPGK | 8.84
canine IgGB (65) mAb with mutation A426W (antibody, part only; not given: variable domains of unnamed mAb, not shown: another chain or arm of the molecule) constant: ASTTAPSVFPLAPSCGSTSGSTVALACLVSGYFPEPVTVSWNSGSLTSGVHTFPSVLQSSGLYSLSSMVTVPSSRWPSETFTCNVAHPASKTKVDKPVPKRENGRVPRPPDCPKCPAPEMLGGPSVFIFPPKPKDTLLIARTPEVTCVVVDLDPEDPEVQISWFVDGKQMQTAKTQPREEQFNGTYRVVSVLPIGHQDWLKGKQFTCKVNNKALPSPIERTISKARGQAHQPSVYVLPPSREELSKNTVSLTCLIKDFFPPDIDVEWQSNGQQEPESKYRTTPPQLDEDGSYFLYSKLSVDKSRWQRGDTFICWVMHEALHNHYTQESLSHSPGK | 3.87
canine IgGB (65) mAb with mutation Y436E (antibody, part only; not given: Variable domains, not shown: another chain or arm of the molecule) constant: ASTTAPSVFPLAPSCGSTSGSTVALACLVSGYFPEPVTVSWNSGSLTSGVHTFPSVLQSSGLYSLSSMVTVPSSRWPSETFTCNVAHPASKTKVDKPVPKRENGRVPRPPDCPKCPAPEMLGGPSVFIFPPKPKDTLLIARTPEVTCVVVDLDPEDPEVQISWFVDGKQMQTAKTQPREEQFNGTYRVVSVLPIGHQDWLKGKQFTCKVNNKALPSPIERTISKARGQAHQPSVYVLPPSREELSKNTVSLTCLIKDFFPPDIDVEWQSNGQQEPESKYRTTPPQLDEDGSYFLYSKLSVDKSRWQRGDTFICAVMHEALHNHETQESLSHSPGK | 5.28
canine IgGB (65) mAb with mutation A426P (antibody, part only; not given: Variable domains, not shown: another chain or arm of the molecule) constant: ASTTAPSVFPLAPSCGSTSGSTVALACLVSGYFPEPVTVSWNSGSLTSGVHTFPSVLQSSGLYSLSSMVTVPSSRWPSETFTCNVAHPASKTKVDKPVPKRENGRVPRPPDCPKCPAPEMLGGPSVFIFPPKPKDTLLIARTPEVTCVVVDLDPEDPEVQISWFVDGKQMQTAKTQPREEQFNGTYRVVSVLPIGHQDWLKGKQFTCKVNNKALPSPIERTISKARGQAHQPSVYVLPPSREELSKNTVSLTCLIKDFFPPDIDVEWQSNGQQEPESKYRTTPPQLDEDGSYFLYSKLSVDKSRWQRGDTFICPVMHEALHNHYTQESLSHSPGK | 23.7

Continued, values first:

Kd [nM] | Binder
5.07 | canine IgGB (65) mAb with mutation T286H (antibody, part only; not given: variable domains of unnamed mAb, not shown: another chain or arm of the molecule) constant: ASTTAPSVFPLAPSCGSTSGSTVALACLVSGYFPEPVTVSWNSGSLTSGVHTFPSVLQSSGLYSLSSMVTVPSSRWPSETFTCNVAHPASKTKVDKPVPKRENGRVPRPPDCPKCPAPEMLGGPSVFIFPPKPKDTLLIARTPEVTCVVVDLDPEDPEVQISWFVDGKQMQHAKTQPREEQFNGTYRVVSVLPIGHQDWLKGKQFTCKVNNKALPSPIERTISKARGQAHQPSVYVLPPSREELSKNTVSLTCLIKDFFPPDIDVEWQSNGQQEPESKYRTTPPQLDEDGSYFLYSKLSVDKSRWQRGDTFICAVMHEALHNHYTQESLSHSPGK
8.72 | canine IgGB (65) mAb with mutation A426T (antibody, part only; not given: variable domains of unnamed mAb, not shown: another chain or arm of the molecule) constant: ASTTAPSVFPLAPSCGSTSGSTVALACLVSGYFPEPVTVSWNSGSLTSGVHTFPSVLQSSGLYSLSSMVTVPSSRWPSETFTCNVAHPASKTKVDKPVPKRENGRVPRPPDCPKCPAPEMLGGPSVFIFPPKPKDTLLIARTPEVTCVVVDLDPEDPEVQISWFVDGKQMQTAKTQPREEQFNGTYRVVSVLPIGHQDWLKGKQFTCKVNNKALPSPIERTISKARGQAHQPSVYVLPPSREELSKNTVSLTCLIKDFFPPDIDVEWQSNGQQEPESKYRTTPPQLDEDGSYFLYSKLSVDKSRWQRGDTFICTVMHEALHNHYTQESLSHSPGK
9.8 | canine IgGB (65) mAb with mutation Y436F (antibody, part only; not given: Variable domains, not shown: another chain or arm of the molecule) constant: ASTTAPSVFPLAPSCGSTSGSTVALACLVSGYFPEPVTVSWNSGSLTSGVHTFPSVLQSSGLYSLSSMVTVPSSRWPSETFTCNVAHPASKTKVDKPVPKRENGRVPRPPDCPKCPAPEMLGGPSVFIFPPKPKDTLLIARTPEVTCVVVDLDPEDPEVQISWFVDGKQMQTAKTQPREEQFNGTYRVVSVLPIGHQDWLKGKQFTCKVNNKALPSPIERTISKARGQAHQPSVYVLPPSREELSKNTVSLTCLIKDFFPPDIDVEWQSNGQQEPESKYRTTPPQLDEDGSYFLYSKLSVDKSRWQRGDTFICAVMHEALHNHFTQESLSHSPGK
8.41 | canine IgGB (65) mAb with mutation Y436I (antibody, part only; not given: variable domains of unnamed mAb, not shown: another chain or arm of the molecule) constant: ASTTAPSVFPLAPSCGSTSGSTVALACLVSGYFPEPVTVSWNSGSLTSGVHTFPSVLQSSGLYSLSSMVTVPSSRWPSETFTCNVAHPASKTKVDKPVPKRENGRVPRPPDCPKCPAPEMLGGPSVFIFPPKPKDTLLIARTPEVTCVVVDLDPEDPEVQISWFVDGKQMQTAKTQPREEQFNGTYRVVSVLPIGHQDWLKGKQFTCKVNNKALPSPIERTISKARGQAHQPSVYVLPPSREELSKNTVSLTCLIKDFFPPDIDVEWQSNGQQEPESKYRTTPPQLDEDGSYFLYSKLSVDKSRWQRGDTFICAVMHEALHNHITQESLSHSPGK
9.11 | canine IgGB (65) mAb with mutation A426V (antibody, part only; not given: Variable domains, not shown: another chain or arm of the molecule) constant: ASTTAPSVFPLAPSCGSTSGSTVALACLVSGYFPEPVTVSWNSGSLTSGVHTFPSVLQSSGLYSLSSMVTVPSSRWPSETFTCNVAHPASKTKVDKPVPKRENGRVPRPPDCPKCPAPEMLGGPSVFIFPPKPKDTLLIARTPEVTCVVVDLDPEDPEVQISWFVDGKQMQTAKTQPREEQFNGTYRVVSVLPIGHQDWLKGKQFTCKVNNKALPSPIERTISKARGQAHQPSVYVLPPSREELSKNTVSLTCLIKDFFPPDIDVEWQSNGQQEPESKYRTTPPQLDEDGSYFLYSKLSVDKSRWQRGDTFICVVMHEALHNHYTQESLSHSPGK
8.41 | canine IgGB (65) mAb with mutation A426Q (antibody, part only; not given: variable domains of unnamed mAb, not shown: another chain or arm of the molecule) constant: ASTTAPSVFPLAPSCGSTSGSTVALACLVSGYFPEPVTVSWNSGSLTSGVHTFPSVLQSSGLYSLSSMVTVPSSRWPSETFTCNVAHPASKTKVDKPVPKRENGRVPRPPDCPKCPAPEMLGGPSVFIFPPKPKDTLLIARTPEVTCVVVDLDPEDPEVQISWFVDGKQMQTAKTQPREEQFNGTYRVVSVLPIGHQDWLKGKQFTCKVNNKALPSPIERTISKARGQAHQPSVYVLPPSREELSKNTVSLTCLIKDFFPPDIDVEWQSNGQQEPESKYRTTPPQLDEDGSYFLYSKLSVDKSRWQRGDTFICQVMHEALHNHYTQESLSHSPGK

Source: US20260139055A1
